Publication PMC3476528
“And” between values parts separate entries of the source, which are not always exact repeats. Equal entries are not always repeated.

B1: CHD4 tPHDtCHD/ATPase construct (minimal construct containing all three domains) (domain or fragment)
chain: YETDHQDYCEVCQQGGEIILCDTCPRAYHMVCLDPDMEKAPEGKWSCPHCEKEGIQWEAKEDNSEGEEILEEVGGDLEEEDDHHMEFCRVCKDGGELLCCDTCPSSYHIHCLNPPLPEIPNGEWLCPRCTCPALKGKVQKILIWKWGQPPSPTPVPRPPDADPNTPSPKPLEGRPERQFFVKWQGMSYWHCSWVSELQLELHCQVMFRNYQRKNDMDEPPSGDFGGDEEKSRKRKNKDPKFAEMEERFYRYGIKPEWMMIHRILNHSVDKKGHVHYLIKWRDLPYDQASWESEDVEIQDYDLFKQSYWNHRELMRGEEGRPGKKLKKVKLRKLERPPETPTVDPTVKYERQPEYLDATGGTLHPYQMEGLNWLRFSWAQGTDTILADEMGLGKTVQTAVFLYSLYKEGHSKGPFLVSAPLSTIINWEREFEMWAPDMYVVTYVGDKDSRAIIRENEFSFEDNAIRGGKKASRMKKEASVKFHVLLTSYELITIDMAILGSIDWACLIVDEAHRLKNNQSKFFRVLNGYSLQHKLLLTGTPLQNNLEELFHLLNFLTPERFHNLEGFLEEFADIAKEDQIKKLHDMLGPHMLRRLKADVFKNMPSKTELIVRVELSPMQKKYYKYILTRNFEALNARGGGNQVSLLNVVMDLKKCCNHPYLFPVAAMEAPKMPNGMYDGSALIRASGKLLLLQKMLKNLKEGGHRVLIFSQMTKMLDLLEDFLEHEGYKYERIDGGITGNMRQEAIDRFNAPGAQQFCFLLSTRAGGLGINLATADTVIIYDSDWNPHNDIQAFSRAHRIGQNKKVMIYRFVTRASVEERITQVAKKKMMLTHLVVRPGL
modifications: not checked
B2: CHD4 tandem plant homeodomain zinc fingers (tPHD) construct (domain or fragment)
chain: YETDHQDYCEVCQQGGEIILCDTCPRAYHMVCLDPDMEKAPEGKWSCPHCEKEGIQWEAKEDNSEGEEILEEVGGDLEEEDDHHMEFCRVCKDGGELLCCDTCPSSYHIHCLNPPLPEIPNGEWLCPRCTCPALKGK
modifications: not checked
B3: CHD4 tPHDtCHD construct (tandem PHD and tandem chromodomains) (domain or fragment)
chain: YETDHQDYCEVCQQGGEIILCDTCPRAYHMVCLDPDMEKAPEGKWSCPHCEKEGIQWEAKEDNSEGEEILEEVGGDLEEEDDHHMEFCRVCKDGGELLCCDTCPSSYHIHCLNPPLPEIPNGEWLCPRCTCPALKGKVQKILIWKWGQPPSPTPVPRPPDADPNTPSPKPLEGRPERQFFVKWQGMSYWHCSWVSELQLELHCQVMFRNYQRKNDMDEPPSGDFGGDEEKSRKRKNKDPKFAEMEERFYRYGIKPEWMMIHRILNHSVDKKGHVHYLIKWRDLPYDQASWESEDVEIQDYDLFKQSYWNHRELMRGEEGRPGKKLKKVKLRKL
modifications: not checked

What was measured:
[1] = target: T1, histone H3 peptide 1-21 monomethylated on K9, biotinylated, P68431; assay: SPR; as a1 but tPHDtCHD/ATPase injected with added ATP
[2] = target: histone H3 peptide 1-21, unmodified, biotinylated, P68431; assay: as above
[3] = target: T2, histone H3 peptide 1-21 trimethylated on K9, biotinylated, P68431; assay: as above
[4] = target: T3, histone H3 peptide 1-21 dimethylated on K9, biotinylated, P68431; assay: as above
[5] = target: T1, histone H3 peptide 1-21 monomethylated …; assay: SPR; biotinylated histone H3 peptides immobilised on streptavidin sensor, CHD4 constructs injected at 100 μl/min; 25 °C; 20 mM Tris pH 7.5, 200 mM NaCl, 0.05% polysorbate 20; Kd from the steady-state response, sensorgrams when appropriate globally fitted; three repeats
[6] = target: histone H3 peptide 1-21, unmodified, biotinylated, P68431; assay: as above
[7] = target: T2, histone H3 peptide 1-21 trimethylated …; assay: as above
[8] = target: T3, histone H3 peptide 1-21 dimethylated on …; assay: as above
[9] = target: T4, nucleosome core particle reconstituted from recombinant X. laevis histones and a 168 bp fragment of 601-DNA (X. laevis)
[10] = target: T4, nucleosome core particle reconstituted …; assay: native gel or EMSA; 50 fmol radiolabeled mononucleosomes with increasing amounts of CHD4 constructs, 15 min on ice, 20 Tris-HCl pH 8, 200 mM NaCl, 10% sucrose; 5% native polyacrylamide gel, autoradiography

| Binder | Kd [5] | Kd [6] | koff [6] | kon [6] | Kd [7] | koff [7] | kon [7] | Kd [8] | koff [8] | kon [8] | concentration necessary for binding [10] | further results |
| --- | --- | --- | --- | --- | --- | --- | --- | --- | --- | --- | --- | --- |
| B1 | 2.9 µM | 4.1 µM | 0.0135 s⁻¹ | 3300 M⁻¹ s⁻¹ | 2.6 µM | 0.025 s⁻¹ | 1000 M⁻¹ s⁻¹ | 4.7 µM | 0.0056 s⁻¹ | 1200 M⁻¹ s⁻¹ | 0.06 µM | Kd [1]: 6.9 µM; Kd [2]: 1400 nM; koff [2]: 0.0265 s⁻¹; kon [2]: 18900 M⁻¹ s⁻¹; Kd [3]: 500 nM; koff [3]: 0.018 s⁻¹; kon [3]: 36000 M⁻¹ s⁻¹; Kd [4]: 1700 nM; koff [4]: 0.0073 s⁻¹; kon [4]: 4300 M⁻¹ s⁻¹; koff [5]: 0.026 s⁻¹; kon [5]: 900 M⁻¹ s⁻¹; ATPase activity (kcat, phosphate release assay) with 0.32 pmol of mono-nucleosome particles; about 6-fold stimulation [9]: 0.0615 s⁻¹ |
| B2 | 42 µM | 190 µM and 188 µM | 0.49 s⁻¹ | 2600 M⁻¹ s⁻¹ | 70 µM and 48 µM | 0.17 s⁻¹ | 3500 M⁻¹ s⁻¹ | 63 µM and 51 µM | 0.2 s⁻¹ | 3900 M⁻¹ s⁻¹ | 10 to 20 µM |  |
| B3 | 24 µM | 14 µM and 19 µM | 0.68 s⁻¹ | 50000 M⁻¹ s⁻¹ | 21 µM and 10 µM |  | 33000 M⁻¹ s⁻¹ | 8.6 µM | 0.31 s⁻¹ |  | 0.5 µM |  |
